Measurements: patent US20210238260
Positions count from the first letter of the chain named. Names and notes keep the numbering of the source.

B1: FIXa-Y155F/K228N/R318Y/R338E/R403E/E410N (protein)
chain 1: YNSGKLEEFVQGNLERECMEEKCSFEEAREVFENTERTTEFWKQYVDGDQCESNPCLNGGSCKDDINSYECWCPFGFEGKNCELDVTCNIKNGRCEQFCKNSADNKVVCSCTEGYRLAENQKSCEPAVPFPCGRVSVSQTSKLTR
chain 2: VVGGEDAKPGQFPWQVVLNGKVDAFCGGSIVNEKWIVTAAHCVETGVNITVVAGEHNIEETEHTEQKRNVIRIIPHHNYNAAINKYNHDIALLELDEPLVLNSYVTPICIADKEYTNIFLKFGSGYVSGWGRVFHKGYSALVLQYLRVPLVDRATCLESTKFTIYNNMFCAGFHEGGRDSCQGDSGGPHVTEVEGTSFLTGIISWGEECAMKGKYGIYTKVSEYVNWIKNKTKLT
B2: FIXa-Y155F/N260S/R318Y/R338E/T343R/R403E/E410N (protein)
chain 1: B1 chain 1
chain 2: B1 chain 2 with N48K, N80S, T163R
B3: FIXa-R318Y/R338E/R403E/E410N/T412V (protein)
chain 1: B1 chain 1
chain 2: B1 chain 2 with N48K, T232V
B4: FIXa-Y155F/K228N/K247N/N249S/R318Y/R338E/T343R/R403E/E410N (protein)
chain 1: B1 chain 1
chain 2: B1 chain 2 with K67N, N69S, T163R
B5: FIXa-K228N/K247N/N249S/R318Y/R338E/R403E/E410N (protein)
chain 1: B1 chain 1
chain 2: B1 chain 2 with K67N, N69S
B6: FIXa K228N/K247N/N249S/R318Y/R338E/R403E/E410N (protein)
chain 1: B1 chain 1
chain 2: B1 chain 2 with K67N, N69S
B7: FIXa-N260S/R318Y/R338E/T343R/R403E/E410N (protein)
chain 1: B1 chain 1
chain 2: B1 chain 2 with N48K, N80S, T163R
B8: FIXa-I251S/R318Y/R338E/R403E/E410N (protein)
chain 1: B1 chain 1
chain 2: B1 chain 2 with N48K, I71S
B9: FIXa-Y155F/I251S/R318Y/R338E/R403E/E410N (protein)
chain 1: B1 chain 1
chain 2: B1 chain 2 with N48K, I71S
B10: FIXa-R318Y/T343R/E410N (protein)
chain 1: B1 chain 1
chain 2: B1 chain 2 with N48K, E158R, T163R, E223R
B11: FIXa-K228N/R318Y/R338E/T343R/R403E/E410N (protein)
chain 1: B1 chain 1
chain 2: B1 chain 2 with T163R
B12: FIXa-D104N/K106S/K247N/N249S/R318Y/R338E/R403E/E410N (protein)
chain 1: B1 chain 1 with D104N, K106S
chain 2: B1 chain 2 with N48K, K67N, N69S
B13: FIXa-Y155F/K247N/N249S/R318Y/R338E/R403E/E410N (protein)
chain 1: B1 chain 1
chain 2: B1 chain 2 with N48K, K67N, N69S
B14: FIXa-D104N/K106S/I251S/R318Y/R338E/R403E/E410N (protein)
chain 1: B1 chain 1 with D104N, K106S
chain 2: B1 chain 2 with N48K, I71S
B15: FIXa-K228N/K247N/N249S/R318Y/T343R/R403E/E410N (protein)
chain 1: B1 chain 1
chain 2: B1 chain 2 with K67N, N69S, E158R, T163R
B16: FIXa-Y155F/K228N/I251S/R318Y/R338E/R403E/E410N (protein)
chain 1: B1 chain 1
chain 2: B1 chain 2 with I71S
B17: FIXa-K247N/N249S/R318Y/R338E/T343R/R403E/E410N (protein)
chain 1: B1 chain 1
chain 2: B1 chain 2 with N48K, K67N, N69S, T163R
B18: FIXa-K228N/K247N/N249S/R318Y/R338E/T343R/R403E/E410N (protein)
chain 1: B1 chain 1
chain 2: B1 chain 2 with K67N, N69S, T163R
B19: FIXa-D85N/K228N/R318Y/R338E/R403E/E410N (protein)
chain 1: B1 chain 1 with D85N
chain 2: B1 chain 2
B20: FIXa-R318Y/R338E/N346D/R403E/E410N (protein)
chain 1: B1 chain 1
chain 2: B1 chain 2 with N48K, N166D
B21: FIXa-R318Y/R338E/R403E/T412A (protein)
chain 1: B1 chain 1
chain 2: B1 chain 2 with N48K, N230E, T232A
B22: FIXa-K228N/K247N/N249S/R318Y/R338E/T343R/E410N (protein)
chain 1: B1 chain 1
chain 2: B1 chain 2 with K67N, N69S, T163R, E223R
B23: FIXa Y155F/K228N/K247N/N249S (protein)
chain 1: B1 chain 1
chain 2: B1 chain 2 with K67N, N69S, Y138R, E158R, E223R, N230E
B24: FIXa-K228N/I251S/R318Y/R338E/R403E/E410N (protein)
chain 1: B1 chain 1
chain 2: B1 chain 2 with I71S
B25: FIXa-K228N/R318Y/R338E/R403E/E410N (protein)
chain 1: B1 chain 1
chain 2: B1 chain 2
B26: FIXa-R318Y/R338E/R403E/E410S (protein)
chain 1: B1 chain 1
chain 2: B1 chain 2 with N48K, N230S
B27: FIXa-K228N/K247N/N249S/R318Y/R338E/T343R/R403E (protein)
chain 1: B1 chain 1
chain 2: B1 chain 2 with K67N, N69S, T163R, N230E
B28: FIXa D104N/K106S/K228N/K247N/N249S/R318Y/R338E/R403E/E410N (protein)
chain 1: B1 chain 1 with D104N, K106S
chain 2: B1 chain 2 with K67N, N69S

Assays:
[1] = molecular target: plasma purified human antithrombin III (AT-III), as complex with unfractionated heparin; assay: ratio of K0.5 (lower limit) to Catalyst Biosciences WT FIXa, AT-III/UFH inhibition
[2] = molecular target: plasma purified human AT-III (antithrombin III); assay: AT-III/UFH inhibition K0.5, ratio to Catalyst Biosciences WT FIXa
[3] = molecular target: Factor X (FX), P00742
[4] = molecular target: Factor X, P00742
Factor X, P00742, sequence (P00742 whole entry, looked up): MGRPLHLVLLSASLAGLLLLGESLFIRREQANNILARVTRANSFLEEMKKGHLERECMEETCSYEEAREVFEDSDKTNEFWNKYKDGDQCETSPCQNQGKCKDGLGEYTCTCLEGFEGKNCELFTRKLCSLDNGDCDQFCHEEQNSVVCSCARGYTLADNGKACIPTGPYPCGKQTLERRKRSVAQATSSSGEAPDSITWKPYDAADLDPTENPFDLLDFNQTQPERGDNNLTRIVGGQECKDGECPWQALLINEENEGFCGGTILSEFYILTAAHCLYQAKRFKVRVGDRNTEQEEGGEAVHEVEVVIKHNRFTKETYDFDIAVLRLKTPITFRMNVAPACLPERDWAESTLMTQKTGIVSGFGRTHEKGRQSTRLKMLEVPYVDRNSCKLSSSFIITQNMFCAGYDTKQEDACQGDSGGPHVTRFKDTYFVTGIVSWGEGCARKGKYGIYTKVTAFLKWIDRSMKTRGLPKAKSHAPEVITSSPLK

Factor X (FX), P00742, sequence (P00742 whole entry, looked up): as above

Protein | K0.5-mut/K0.5-wt [1] | K0.5-mut/K0.5-wt [2] | % of WT kcat/KM [4] | KM [4] | kcat/KM [4] | KM [3] | kcat [4] | also measured
B1 | 517 | > 517 | 453% | 0.048 µM | 2e+08 M⁻¹ s⁻¹ | – | – | % of WT kcat/KM [3]: 356%; kcat [3]: 9.7 s⁻¹; kcat/KM [3]: 1.6e+08 M⁻¹ s⁻¹
B2 | – | – | 335% | – | 1.5e+08 M⁻¹ s⁻¹ | 0.0402 µM | 5.8 s⁻¹ | –
B3 | 517 | > 517 | 424% | – | 1.9e+08 M⁻¹ s⁻¹ | 0.0443 µM | 7.9 s⁻¹ | kcat of FX activation by FIXa (Xase complex with FVIIIa, PC/PS vesicles, Ca2+) [3]: 7 s⁻¹
B4 | – | – | 646% | – | 3e+08 M⁻¹ s⁻¹ | 0.0368 µM | 9.4 s⁻¹ | –
B5 | 517 | > 517 | 258% | – | 1.2e+08 M⁻¹ s⁻¹ | 0.0558 µM | 6.1 s⁻¹ | kcat of FX activation by FIXa (Xase complex with FVIIIa, PC/PS vesicles, Ca2+) [3]: 7.1 s⁻¹
B6 | – | – | 352% | – | 1.6e+08 M⁻¹ s⁻¹ | – | – | KM (FX activation by FIXa in the Xase complex with FVIIIa, PC/PS vesicles and Ca2+) [3]: 0.0497 µM
B7 | – | – | 638% | – | 2.9e+08 M⁻¹ s⁻¹ | 0.0321 µM | 8.9 s⁻¹ | –
B8 | 517 | > 517 | 344% | 0.0334 µM | 1.5e+08 M⁻¹ s⁻¹ | – | – | % of WT kcat/KM [3]: 334%; kcat [3]: 4.8 s⁻¹; kcat/KM [3]: 1.5e+08 M⁻¹ s⁻¹
B9 | 517 | > 517 | 374% | 0.0433 µM | 1.7e+08 M⁻¹ s⁻¹ | – | – | % of WT kcat/KM [3]: 363%; kcat [3]: 7.2 s⁻¹; kcat/KM [3]: 1.7e+08 M⁻¹ s⁻¹
B10 | – | – | – | 0.0523 µM | – | – | – | kcat (s^-1) of FX activation by FIXa variant in the Xase complex (FVIIIa, PC/PS vesicles, Ca2+), fluorogenic FXa read-out [3]: 3.2 s⁻¹
B11 | – | – | – | 0.0403 µM | – | – | – | kcat (s^-1) of FX activation by FIXa variant in the Xase complex (FVIIIa, PC/PS vesicles, Ca2+), fluorogenic FXa read-out [3]: 10.5 s⁻¹
B12 | 517 | > 517 | 197% | 0.059 µM | 8.8e+07 M⁻¹ s⁻¹ | – | – | % of WT kcat/KM [3]: 192%; kcat [3]: 5.2 s⁻¹; kcat/KM [3]: 8.8e+07 M⁻¹ s⁻¹
B13 | 517 | > 517 | 408% | 0.0391 µM | 1.8e+08 M⁻¹ s⁻¹ | – | – | % of WT kcat/KM [3]: 405%; kcat [3]: 6.5 s⁻¹; kcat/KM [3]: 1.9e+08 M⁻¹ s⁻¹
B14 | 517 | > 517 | – | – | – | – | – | % of WT kcat/KM [3]: 263%; kcat [3]: 5.5 s⁻¹; kcat/KM [3]: 1.2e+08 M⁻¹ s⁻¹
B15 | – | – | – | 0.125 µM | – | – | – | kcat (s^-1) of FX activation by FIXa variant in the Xase complex (FVIIIa, PC/PS vesicles, Ca2+), fluorogenic FXa read-out [3]: 8.1 s⁻¹
B16 | – | – | 296% | – | 1.4e+08 M⁻¹ s⁻¹ | 0.0393 µM | 5.3 s⁻¹ | –
B17 | – | – | 824% | – | 3.8e+08 M⁻¹ s⁻¹ | 0.0292 µM | 10.6 s⁻¹ | catalytic activity (kcat/KM) for activation of FX [3]: improved activity when combined with other mutations
B18 | – | – | 880% | – | 4.1e+08 M⁻¹ s⁻¹ | 0.0251 µM | 9.9 s⁻¹ | –
B19 | 517 | > 517 | 346% | 0.0393 µM | 1.6e+08 M⁻¹ s⁻¹ | – | – | % of WT kcat/KM [3]: 336%; kcat [3]: 6 s⁻¹; kcat/KM [3]: 1.6e+08 M⁻¹ s⁻¹
B20 | 517 | > 517 | – | – | – | 0.0777 µM | – | kcat of FX activation by FIXa (Xase complex with FVIIIa, PC/PS vesicles, Ca2+) [3]: 2.5 s⁻¹
B21 | 517 | > 517 | – | – | – | – | – | –
B22 | – | – | – | 0.0381 µM | – | – | – | kcat (s^-1) of FX activation by FIXa variant in the Xase complex (FVIIIa, PC/PS vesicles, Ca2+), fluorogenic FXa read-out [3]: 4.7 s⁻¹
B23 | – | – | 115% | – | 5.3e+07 M⁻¹ s⁻¹ | – | – | KM (FX activation by FIXa in the Xase complex with FVIIIa, PC/PS vesicles and Ca2+) [3]: 0.0792 µM
B24 | – | – | 463% | – | 2.1e+08 M⁻¹ s⁻¹ | 0.0364 µM | 7.5 s⁻¹ | –
B25 | 517 | > 517 | 349% | 0.0361 µM | 1.6e+08 M⁻¹ s⁻¹ | – | – | –
B26 | 517 | > 517 | 401% | 0.0351 µM | 1.8e+08 M⁻¹ s⁻¹ | – | – | % of WT kcat/KM [3]: 458%; kcat [3]: 5.8 s⁻¹; kcat of FX activation by FIXa (Xase complex with FVIIIa, PC/PS vesicles, Ca2+) [3]: 7.4 s⁻¹; kcat/KM [3]: 2.1e+08 M⁻¹ s⁻¹
B27 | – | – | – | 0.0444 µM | – | – | – | kcat (s^-1) of FX activation by FIXa variant in the Xase complex (FVIIIa, PC/PS vesicles, Ca2+), fluorogenic FXa read-out [3]: 10.9 s⁻¹
B28 | – | – | 239% | – | 1.1e+08 M⁻¹ s⁻¹ | – | – | KM (FX activation by FIXa in the Xase complex with FVIIIa, PC/PS vesicles and Ca2+) [3]: 0.0533 µM
